# Assay results reported in publication PMC7694997.
# Biological target: Mycoplasma penetrans methionyl-tRNA synthetase, full-length, M568A variant (Mycoplasma penetrans)
# Assay: SEC-MALS; size exclusion chromatography with multiangle light scattering of the purified enzyme in solution; conditions not told in the main text
substance,measurement,value
"Mycoplasma penetrans methionyl-tRNA synthetase, full-length, M568A variant (enzyme)",stoichiometry N,2
